Target: EDE1-C10 IgG1
Test: shotgun alanine-scanning mutagenesis library binding screen
Settings: read off a plot

Substance | percent of parent [% WT]
wild-type DENV2 16681 prM/E expressed in HEK-293T cells V309A | 57
wild-type DENV2 16681 prM/E expressed in HEK-293T cells M6A | 82
wild-type DENV2 16681 prM/E expressed in HEK-293T cells K310A | -4
wild-type DENV2 16681 prM/E expressed in HEK-293T cells Q77A | 72
wild-type DENV2 16681 prM/E expressed in HEK-293T cells I113A | 73
wild-type DENV2 16681 prM/E expressed in HEK-293T cells V308A | 53
wild-type DENV2 16681 prM/E expressed in HEK-293T cells N153A | 61
wild-type DENV2 16681 prM/E expressed in HEK-293T cells L82A | 57
wild-type DENV2 16681 prM/E expressed in HEK-293T cells V97A | 74
wild-type DENV2 16681 prM/E expressed in HEK-293T cells G78A | 44
wild-type DENV2 16681 prM/E expressed in HEK-293T cells T155A | 81
